Experimental findings from article PMC7732855 are described below.

The target of this test is heat shock protein 60 (Hsp60), surface-expressed on Caco-2 cells (human (endogenous in Caco-2)) (UniProt P10809).
UniProt P10809, sequence (P10809 27-573): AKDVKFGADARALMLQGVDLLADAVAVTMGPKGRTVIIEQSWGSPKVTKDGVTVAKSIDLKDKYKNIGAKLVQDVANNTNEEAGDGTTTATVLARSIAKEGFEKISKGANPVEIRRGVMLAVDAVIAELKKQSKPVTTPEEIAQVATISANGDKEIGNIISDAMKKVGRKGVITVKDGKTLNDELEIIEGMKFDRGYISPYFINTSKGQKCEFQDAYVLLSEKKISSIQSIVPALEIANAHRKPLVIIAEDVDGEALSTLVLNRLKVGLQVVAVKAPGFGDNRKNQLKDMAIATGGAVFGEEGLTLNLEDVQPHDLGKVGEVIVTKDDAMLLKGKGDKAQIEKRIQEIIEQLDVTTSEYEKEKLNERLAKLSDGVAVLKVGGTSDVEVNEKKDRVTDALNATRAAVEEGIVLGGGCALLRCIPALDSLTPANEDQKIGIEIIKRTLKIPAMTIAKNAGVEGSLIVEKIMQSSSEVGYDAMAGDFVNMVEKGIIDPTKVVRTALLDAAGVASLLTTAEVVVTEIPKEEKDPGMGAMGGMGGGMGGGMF

“Listeria adhesion protein (LAP) from Listeria monocytogenes F4244, expressed on the surface of Lactobacillus casei (strain LbcLAP^Lm) (natural protein)” returned an adhesion of the BLP strain (MOE 10, 1 h) to Hsp60^+ Caco-2 cells (Hsp60 overexpressed), relative to LbcWT of 9 fold and an adhesion of the BLP strain (MOE 10, 1 h) to Hsp60^Vec Caco-2 cells (basal Hsp60), relative to LbcWT of 4 fold.

B1: Listeria adhesion protein (LAP) from Listeria innocua F4248, expressed on the surface of Lactobacillus casei (strain LbcLAP^Lin) (natural protein)
chain: MAIKENAAQEVLEVQKVIDRLADNGQKALKAFESYNQEQVDNIVHAMALAGLDQHMPLAKLAVEETGRGLYEDKCIKNIFATEYIWNNIKNNKTVGVINEDTQTGVIEIAEPVGVVAGVTPVTNPTSTTLFKAIIAIKTRNPIIFAFHPSAQRCSSEAAKVVYDAAVAAGAPEHCIQWVEKPSLEATKQLMNHDKVALVLATGGAGMVKSAYSTGKPALGVGPGNVPAYIDKTAKIKRSVNDIILSKSFDQGMICASEQAVIVDKEVAKEVKAEMEANKCYFVKGAEFKKLESYVINPEKGTLNPDVVGKSPAWIANQAGFKVPEDTKILVAEIKGVGDKYPLSHEKLSPVLAFIEAANQAEAFDRCEEMLVYGGLGHSAVIHSTDKEVQKAFGIRMKACRIIVNAPSAQGGIGDIYNGFIPSLTLGCGSYGKNSVSQNVSATNLLNVKRIADRRNNMQWFKLPPKIFFEKYSTQYLQKMEGVERVFIVTDPGMVQFKYVDVVIEHLKKRGNDVAYQVFADVEPDPSDVTVYKGAELMKDFKPDTIIALGGGSAMDAAKGMWLFYEHPEASFFGLKQKFLDIRKRTFKYPKLGGKAKFVAIPTTSGTGSEVTPFAVITDKENNIKYPLADYELTPDVAIVDAQYVTTVPAHITADTGMDVLTHAIESYVSVMASDYTRGLSIRAIELVFENLRESVLTGDPDAREKMHNASALAGMAFANAFLGINHSLAHKIGPEFHIPHGRANAILMPHVIRYNALKPKKHALFPRYESFRADEDYARISRIIGFPAATTEEGVKSLVDEIIKLGKDVGIDMSLKGQNVAKKDLDAVVDTLADRAFMDQCTTANPKQPLVSELKEIYLEAYKGV
For B1, the adhesion of the BLP strain (MOE 10, 1 h) to Hsp60^+ Caco-2 cells (Hsp60 overexpressed), relative to LbcWT was 9 fold and the adhesion of the BLP strain (MOE 10, 1 h) to Hsp60^Vec Caco-2 cells (basal Hsp60), relative to LbcWT is 4 fold.
